B1: GNAI1 (parent)
chain: WIHCFEGVTAIIFCVALSDYDLVL
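Also: lentivirally expressed fusions sorted by FACS into six bins by GFP to DsRed ratio, PSI derived from sequencing read proportions per bin multiplied by bin number.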

Variants of B1 are the subject of this data set. Briefly: protein stability index of a GFP-peptide fusion (GPS, HEK-293T) (PSI 1-6); higher = more stable. Particulars: c terminus: a fixed tail appended.
In the case of WIHCFEPVTAIIFCVALSDYDLVL, the protein stability index is 5.18.
Then WIHCFEDVTAIIFCVALSDYDLVL, with 3.39.
As for WIHCFESVTAIIFCVALSDYDLVL, the protein stability index came to 2.44.
The result for WIHCFERVTAIIFCVALSDYDLVL reads 2.02.
As for WIHCFEMVTAIIFCVALSDYDLVL, the protein stability index amounted to 1.99.
For the variant WIHCFEHVTAIIFCVALSDYDLVL, the protein stability index turned out to be 2.92.
WIHCFEEVTAIIFCVALSDYDLVL: the protein stability index worked out at 3.19.
For WIHCFELVTAIIFCVALSDYDLVL, the protein stability index is 2.54.
Then WIHCFEYVTAIIFCVALSDYDLVL, with 2.62; and WIHCFEQVTAIIFCVALSDYDLVL, with 2.28.
Consider WIHCFEIVTAIIFCVALSDYDLVL, for which the protein stability index was 4.42.
The result for WIHCFETVTAIIFCVALSDYDLVL reads 2.51; that for WIHCFECVTAIIFCVALSDYDLVL, 4.35.
Then WIHCIEGVTAIIFCVALSDYDLVL, with 3.65; and WIHCCEGVTAIIFCVALSDYDLVL, with 1.78; and WIHCDEGVTAIIFCVALSDYDLVL, with 2.6.
The result for WIHCHEGVTAIIFCVALSDYDLVL reads 3.07; that for WIHCNEGVTAIIFCVALSDYDLVL, 2.79; that for WIHCQEGVTAIIFCVALSDYDLVL, 2.79.
Consider WIHCMEGVTAIIFCVALSDYDLVL, for which the protein stability index is 2.91.
On to WIHCKEGVTAIIFCVALSDYDLVL, for which the protein stability index worked out at 2.11.
Then WIHCSEGVTAIIFCVALSDYDLVL, with 2.75.
For WIHCTEGVTAIIFCVALSDYDLVL, the protein stability index is 2.87.
Then WIHCPEGVTAIIFCVALSDYDLVL, with 3.42; and WIHCAEGVTAIIFCVALSDYDLVL, with 3.47; and WIHCFEGATAIIFCVALSDYDLVL, with 2.56.
The result for WIHCFEGRTAIIFCVALSDYDLVL reads 3.63; that for WIHCFEGCTAIIFCVALSDYDLVL, 3.33.
Consider WIHCFEGNTAIIFCVALSDYDLVL, for which the protein stability index worked out at 2.3.
As to WIHCFEGSTAIIFCVALSDYDLVL, the protein stability index stood at 1.65.
WIHCFEGMTAIIFCVALSDYDLVL: the protein stability index turned out to be 2.09.
The result for WIHCFEGQTAIIFCVALSDYDLVL reads 3.32.
The result for WIHCFEGITAIIFCVALSDYDLVL reads 3.14; that for WIHCFEGLTAIIFCVALSDYDLVL, 2.78; that for WIHCFEGPTAIIFCVALSDYDLVL, 2.99.
For the variant WIHCFEGFTAIIFCVALSDYDLVL, the protein stability index turned out to be 3.11.
With WIHCFEGDTAIIFCVALSDYDLVL, the protein stability index is 2.79.
For the variant WIHCFEGGTAIIFCVALSDYDLVL, the protein stability index turned out to be 1.82.
Turning to WIHCFEGKTAIIFCVALSDYDLVL, the protein stability index came to 1.95.
As to WYHCFEGVTAIIFCVALSDYDLVL, the protein stability index amounted to 3.56.
WEHCFEGVTAIIFCVALSDYDLVL: the protein stability index was determined as 3.25.
With WSHCFEGVTAIIFCVALSDYDLVL, the protein stability index stood at 2.82.
As for WAHCFEGVTAIIFCVALSDYDLVL, the protein stability index is 2.9.
Regarding WRHCFEGVTAIIFCVALSDYDLVL, the protein stability index stood at 2.34.
Then WDHCFEGVTAIIFCVALSDYDLVL, with 2.21.
For the variant WFHCFEGVTAIIFCVALSDYDLVL, the protein stability index worked out at 1.63.
Regarding WTHCFEGVTAIIFCVALSDYDLVL, the protein stability index came out at 2.12.
Take WGHCFEGVTAIIFCVALSDYDLVL: the protein stability index stood at 1.7.
In the case of WLHCFEGVTAIIFCVALSDYDLVL, the protein stability index stood at 1.83.
Then WQHCFEGVTAIIFCVALSDYDLVL, with 3.22.
As for WHHCFEGVTAIIFCVALSDYDLVL, the protein stability index worked out at 2.9.
Then WIHCFVGVTAIIFCVALSDYDLVL, with 2.97; and WIHCFYGVTAIIFCVALSDYDLVL, with 2.48; and WIHCFCGVTAIIFCVALSDYDLVL, with 1.95.
As for WIHCFLGVTAIIFCVALSDYDLVL, the protein stability index is 4.47.
Regarding WIHCFTGVTAIIFCVALSDYDLVL, the protein stability index worked out at 2.2.
Turning to WIHCFQGVTAIIFCVALSDYDLVL, the protein stability index was determined as 1.76.
For WIHCFFGVTAIIFCVALSDYDLVL, the protein stability index is 1.87.
The result for WIHCFIGVTAIIFCVALSDYDLVL reads 3.12; that for WIHCFNGVTAIIFCVALSDYDLVL, 3.63.
Then WIHCFGGVTAIIFCVALSDYDLVL, with 2.32; and WIHCFRGVTAIIFCVALSDYDLVL, with 3.24; and WIHCFMGVTAIIFCVALSDYDLVL, with 2.6.
On to WIHCFKGVTAIIFCVALSDYDLVL, for which the protein stability index turned out to be 1.26.
For WIHCFDGVTAIIFCVALSDYDLVL, the protein stability index was found to be 2.74.
Then WIHCFAGVTAIIFCVALSDYDLVL, with 2.75.
The result for WIYCFEGVTAIIFCVALSDYDLVL reads 3.39; that for WIICFEGVTAIIFCVALSDYDLVL, 2.8.
Then WIVCFEGVTAIIFCVALSDYDLVL, with 2.98; and WIFCFEGVTAIIFCVALSDYDLVL, with 1.75; and WIKCFEGVTAIIFCVALSDYDLVL, with 3.35.
As to WIECFEGVTAIIFCVALSDYDLVL, the protein stability index came out at 3.35.
In the case of WINCFEGVTAIIFCVALSDYDLVL, the protein stability index came out at 3.58.
Then WICCFEGVTAIIFCVALSDYDLVL, with 1.69.
Then WIDCFEGVTAIIFCVALSDYDLVL, with 3.95; and WITCFEGVTAIIFCVALSDYDLVL, with 3.21; and TIHCFEGVTAIIFCVALSDYDLVL, with 2.32.
Turning to SIHCFEGVTAIIFCVALSDYDLVL, the protein stability index came out at 1.5.
Then YIHCFEGVTAIIFCVALSDYDLVL, with 3.22.
As to VIHCFEGVTAIIFCVALSDYDLVL, the protein stability index worked out at 3.35.
Then WIHQFEGVTAIIFCVALSDYDLVL, with 3.17; and WIHRFEGVTAIIFCVALSDYDLVL, with 2.97.
On to WIHTFEGVTAIIFCVALSDYDLVL, for which the protein stability index was determined as 2.39.
Then WIHPFEGVTAIIFCVALSDYDLVL, with 2.69; and WIHNFEGVTAIIFCVALSDYDLVL, with 3.76; and WIHHFEGVTAIIFCVALSDYDLVL, with 2.22.
Take WIHMFEGVTAIIFCVALSDYDLVL: the protein stability index was found to be 2.25.
The result for WIHYFEGVTAIIFCVALSDYDLVL reads 2.43.
Then WIHEFEGVTAIIFCVALSDYDLVL, with 2.83; and WIHSFEGVTAIIFCVALSDYDLVL, with 3.29; and WIHFFEGVTAIIFCVALSDYDLVL, with 2.8.
Then WIHGFEGVTAIIFCVALSDYDLVL, with 3.37; and WIHKFEGVTAIIFCVALSDYDLVL, with 3.1.
As for WIHWFEGVTAIIFCVALSDYDLVL, the protein stability index came to 4.22.
